# T1: GST-CRN-3 (C. elegans, UniProt G5EBX6 1-876)
# T1 construct: also called CRN-3 GST-fusion protein; not shown: glutathione S-transferase tag encoded by vector pGEX4T-2
# T1 sequence: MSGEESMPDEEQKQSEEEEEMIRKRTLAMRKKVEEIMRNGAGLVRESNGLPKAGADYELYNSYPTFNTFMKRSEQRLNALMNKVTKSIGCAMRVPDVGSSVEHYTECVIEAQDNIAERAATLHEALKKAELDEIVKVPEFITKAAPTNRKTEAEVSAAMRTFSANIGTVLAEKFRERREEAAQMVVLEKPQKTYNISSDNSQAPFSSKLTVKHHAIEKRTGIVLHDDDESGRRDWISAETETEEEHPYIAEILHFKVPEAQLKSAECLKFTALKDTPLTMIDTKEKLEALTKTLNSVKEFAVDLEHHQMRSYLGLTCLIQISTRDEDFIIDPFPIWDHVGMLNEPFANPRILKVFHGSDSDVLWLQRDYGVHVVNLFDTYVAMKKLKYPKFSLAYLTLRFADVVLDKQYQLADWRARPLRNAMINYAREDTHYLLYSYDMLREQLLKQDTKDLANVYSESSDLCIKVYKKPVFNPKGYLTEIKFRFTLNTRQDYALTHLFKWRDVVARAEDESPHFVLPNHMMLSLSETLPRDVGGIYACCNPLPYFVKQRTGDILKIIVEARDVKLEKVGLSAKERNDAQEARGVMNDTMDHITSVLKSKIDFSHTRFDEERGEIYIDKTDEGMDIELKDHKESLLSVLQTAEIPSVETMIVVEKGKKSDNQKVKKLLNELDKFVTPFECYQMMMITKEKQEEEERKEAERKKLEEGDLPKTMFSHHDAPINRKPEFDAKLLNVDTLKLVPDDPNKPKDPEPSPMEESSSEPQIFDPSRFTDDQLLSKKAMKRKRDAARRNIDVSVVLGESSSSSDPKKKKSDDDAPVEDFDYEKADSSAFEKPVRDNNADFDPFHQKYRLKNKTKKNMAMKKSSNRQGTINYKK
# T2: ^35S-Methionine labeled CRN-3 (C. elegans, UniProt G5EBX6 1-876)
# T2 sequence: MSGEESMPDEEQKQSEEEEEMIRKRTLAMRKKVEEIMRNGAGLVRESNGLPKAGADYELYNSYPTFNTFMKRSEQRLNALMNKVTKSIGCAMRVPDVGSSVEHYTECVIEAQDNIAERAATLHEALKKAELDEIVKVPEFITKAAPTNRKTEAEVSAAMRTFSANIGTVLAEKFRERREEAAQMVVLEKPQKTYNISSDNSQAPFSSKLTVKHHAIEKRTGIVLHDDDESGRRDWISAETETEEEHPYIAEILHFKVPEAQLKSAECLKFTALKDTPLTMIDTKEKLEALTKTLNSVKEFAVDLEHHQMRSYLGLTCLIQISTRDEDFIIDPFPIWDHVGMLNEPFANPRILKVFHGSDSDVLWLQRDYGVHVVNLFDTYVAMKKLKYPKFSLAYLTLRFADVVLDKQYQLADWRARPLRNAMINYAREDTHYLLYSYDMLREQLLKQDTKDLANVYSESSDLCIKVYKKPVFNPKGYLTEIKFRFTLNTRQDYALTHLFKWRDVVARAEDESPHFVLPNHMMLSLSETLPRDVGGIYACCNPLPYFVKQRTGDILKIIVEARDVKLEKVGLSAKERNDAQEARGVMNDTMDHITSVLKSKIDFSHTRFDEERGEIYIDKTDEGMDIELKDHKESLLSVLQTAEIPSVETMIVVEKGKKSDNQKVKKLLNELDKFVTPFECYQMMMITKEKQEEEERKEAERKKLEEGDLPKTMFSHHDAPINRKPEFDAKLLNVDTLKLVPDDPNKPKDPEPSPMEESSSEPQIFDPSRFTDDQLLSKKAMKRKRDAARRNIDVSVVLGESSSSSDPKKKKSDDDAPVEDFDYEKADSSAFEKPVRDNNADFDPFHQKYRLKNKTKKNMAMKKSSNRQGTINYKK
# B1: GST-CRN-1 (other, C. elegans, UniProt Q9N3T2 21-382, looked up)
# chain: NEMKAFFGRTVAIDASMCLYQFLIAVRQDGSQLQSEDGETTSHLMGMLNRTVRMFENGVKPVYVFDGKPPDMKGGELEKRSERRAEAEKALTEAKEKGDVKEAEKFERRLVKVTKQQNDEAKRLLGLMGIPVVEAPCEAEAQCAHLVKAGKVFGTVTEDMDALTFGSTVLLRHFLAPVAKKIPIKEFNLSLALEEMKLSVEEFIDLCILLGCDYCGTIRGVGPKKAVELIRQHKNIETILENIDQNKYPPPEDWPYKRARELFLNPEVTKPEEVELTWKEADVEGVIQFLCGEKNFNEERIRNALAKLKTSRKSGTQGRIDSFFGNSTKVTCVTAATKRKAEEAEKAKKGAKKGGPPKKRAK
# notes: also called CRN-1 GST-fusion protein; not shown: glutathione S-transferase tag encoded by vector pGEX4T-2
# B2: ^35S-Methionine labeled CRN-6 (enzyme, C. elegans, UniProt P34508-2 18-373, looked up)
# chain: AYQCKDNNGSNVDWFVFYKLPHLWNHPDNVPISNGTGFLYFDVNNKNWKLMPQGMDVENNAVYYTLQQYYNSNMNTTFSYMYNDEWPDSTIWSNSSGHAKGVTVFDQYTGFWMIHSIPKFPSKDMFRFPSNAHYYGQMGICISYNTVSLATIAQQLFYYNTFTYQFNLPQSFANQFPVLSQLKNKEYNKSPPLTSTKVLKSLGGQHFRHFAKTGEWGKDLYSDFVGPTLKSSIKVETWNHQSGDEYNLPSVCDPNHVQSTMSAKYIRLPYAIDYSSYEDHSKFVVAYSESSSKPPIPYVCIGDINRQSHQIHRGGGTMCIYDQETYFQFANIISETVPCTKATAEKVDALANNRYF
# modifications: 35S-methionine labelled
# B3: GST-NUC-1 (other, C. elegans, UniProt Q17778 22-375, looked up)
# chain: AFSCKDQSGNDVDWFAVYKMPIEKDDGSVTGLAGGVAWYYVDVNKKGTLTPSAKTLDDNDQAIAYTLQQYYDKQNDKTIFHVMYNDEPWGSKSTSGIKLEEILSNRVYSNYTHEDDSTSTAFGHTKGTIFFDGTSGVWLVHSVPLFPNPTKYEYPVSGHDYGQTMLCMTFKYAQLKSIGTQLFFNRPNIYSSNLPTNMAADNADLAKAIAGQYQKGQPFQSVIELETMAGYSFTNFAKSKEFNADLYDTLVAPTLKTDLVVETWRRGSEIPLDCKLTYHANDALSIHVGSTTAFSYTKDHSKMAHSADMTKPWVCIGDINRMTSQYVRGGGTTCISSSFLWKAYSVIATQNNCA
# notes: also called NUC-1 GST-fusion protein; not shown: glutathione S-transferase tag encoded by vector pGEX4T-2
# How the values were obtained:
# Assay in all cases: GST pull-down, 35S-Met protein vs GST fusion; - means no detectable binding (footnote a)
# GST-CRN-1 = molecular target: B1
# Protocol: (§1) GST fusion protein pull-down assays were performed as described in J. Parrish, H. Metters, L. Chen, D. Xue, Proc. Natl. Acad. Sci. U.S.A. 97, 11916 (2000). Purified GST or GST-fusion proteins (5 μg each) immobilized on glutathione sepharose beads were incubated with ³⁵S-Methionine labeled proteins at 4° C. for 2 hours. The beads were washed extensively and the bound proteins were resolved on a 12% SDS-PAGE and visualized by autoradiography. [0103] cDNAs corresponding to the ORFs were cloned into the pPD129.36 vector via its Nhe I and Xho I sites or the Xho I site alone. Full-length cDNAs were subcloned into the pGEX4T-2 vector for generating GST fusion proteins and for further protein purification and into the pcDNA3.1 vector for in vitro transcription/translation experiments.
# (§2) ^aInteractions were evaluated relative to background binding of ³⁵S-Methionine labeled Luciferase to GST-fusion proteins and ³⁵S-Methionine labeled proteins to GST. “−” indicates no detectable binding, “+” indicates an interaction consistently observed above background levels, and “++” indicates a strong interaction. ^bBecause ³⁵S-Methionine labeled CRN-1 binds GST tightly, it was not possible to evaluate interactions between ³⁵S-CRN-1 and various GST-fusion proteins. ND, not determined.
# GST-CRN-6 = molecular target: T3, GST-CRN-6 (C. elegans, UniProt P08515 1-218 = GST; P34508 1-373)
# T3 construct: Two crn-6 cDNAs (700 bp and 1.1 kb) were isolated; the longer one made the GST fusion; also called CRN-6 GST-fusion protein
# Protocol: as §1, §2
# [1] = molecular target: T4, GST (glutathione-S transferase alone) (UniProt P08515 1-218 = GST)
# T4 construct: Purified GST used as negative control bait on glutathione sepharose beads; also called OST
# T4 sequence (P08515 whole entry): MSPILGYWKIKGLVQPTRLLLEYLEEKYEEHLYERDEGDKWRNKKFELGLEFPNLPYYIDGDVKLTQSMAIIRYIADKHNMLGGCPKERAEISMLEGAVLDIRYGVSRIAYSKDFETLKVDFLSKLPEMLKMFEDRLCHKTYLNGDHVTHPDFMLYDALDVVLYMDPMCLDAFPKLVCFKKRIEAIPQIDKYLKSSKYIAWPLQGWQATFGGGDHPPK
# Protocol: as §1, §2
# [2] = molecular target: B2
# Protocol: as §1, §2
# GST-CRN-3 = molecular target: T1, GST-CRN-3
# Protocol: as §1, §2
# GST-NUC-1 = molecular target: B3
# Protocol: as §1, §2
# [3] = molecular target: T2, ^35S-Methionine labeled CRN-3
# Protocol: as §1, §2
binding result (GST-CRN-1),binding result (GST-CRN-6),binding result (GST-CRN-3),Binder,also measured
no binding,no binding,–,"^35S-Methionine labeled CRN-5 (enzyme, C. elegans) MAGRLREMRCELSFLKNADGSACFSQGATCIWASCSGPGDVHASKASDEAMTLDISYRANCGDNKFNVLNNIIHSTLSNAINLELFPHTTISVTVHGIQDDGSMGAVAINGACFALLDNGMPFETVFCGVLIVRVKDELIIDPTAKQEAASTGRVLFSVCKGSDGHPEVCAMDAIGHWDFIQLEAAWSLAQPSASAIFDFYKTVMKRKLSVDEQ",binding result [1]: no binding
–,–,–,"GST-CRN-5 (other, also called CRN-5 GST-fusion protein; not shown: GST carrier and the linker of vector pGEX4T-2) MAGRLREMRCELSFLKNADGSACFSQGATCIWASCSGPGDVHASKASDEAMTLDISYRANCGDNKFNVLNNIIHSTLSNAINLELFPHTTISVTVHGIQDDGSMGAVAINGACFALLDNGMPFETVFCGVLIVRVKDELIIDPTAKQEAASTGRVLFSVCKGSDGHPEVCAMDAIGHWDFIQLEAAWSLAQPSASAIFDFYKTVMKRKLSVDEQ",binding result [2]: no binding
–,no binding,no binding,"^35S-Methionine labeled CRN-4 (enzyme, C. elegans, UniProt Q10905 1-298, looked up, 35S-methionine labelled) MAYQHCPFDTLLILDFETTSDAANQDYPCEVIQFAIVAYDVPNDKIREDISFNKYVKPVLNRTLTKNCVDFTGIPQRSIDTADTFDVVYEQFQQWLITLGLEEGKFAFVCDSRQDLWRIAQYQMKLSNIQMPAFFRQYINLYKIFTNEMDRMGPKELSATTNIGKMNEYYDLPTIGRAHDAMDDCLNIATILQRMINMGAKVTVNELLTCCASWRRQPLVYNKEWRSSFMDAGKIFERVLPLVVTTIRAGDFRLEMYGVCRYCRKGMDVCGTSHQQTPHDLYKNEEDPIHFAKIAGYY",–
–,no binding,no binding,"^35S-Methionine labeled CYP-13 (enzyme, also called ^35S-CYP-13; CPY-13) not shown",binding result (GST-NUC-1): no binding; binding result [1]: no binding
–,–,–,B1,binding result [3]: no binding
no binding,no binding,no binding,B2,–
no binding,no binding,–,"^35S-Methionine labeled NUC-1 (enzyme, C. elegans, UniProt Q17778 22-375, looked up, 35S-methionine labelled) AFSCKDQSGNDVDWFAVYKMPIEKDDGSVTGLAGGVAWYYVDVNKKGTLTPSAKTLDDNDQAIAYTLQQYYDKQNDKTIFHVMYNDEPWGSKSTSGIKLEEILSNRVYSNYTHEDDSTSTAFGHTKGTIFFDGTSGVWLVHSVPLFPNPTKYEYPVSGHDYGQTMLCMTFKYAQLKSIGTQLFFNRPNIYSSNLPTNMAADNADLAKAIAGQYQKGQPFQSVIELETMAGYSFTNFAKSKEFNADLYDTLVAPTLKTDLVVETWRRGSEIPLDCKLTYHANDALSIHVGSTTAFSYTKDHSKMAHSADMTKPWVCIGDINRMTSQYVRGGGTTCISSSFLWKAYSVIATQNNCA",binding result (GST-NUC-1): no binding
–,–,–,B3,binding result [2]: no binding
